# According to patent publication US20200199204A1:
# Key:
# Experiment in all cases: cell-based or functional assay
# [1] = biological target: HIV-1 Env of ZM249.1 (HIV-1)
# [2] = biological target: HIV-1 Env of BG505.w6m (HIV-1)
# [3] = biological target: HIV-1 Env of ZM53.12 (HIV-1)
# [4] = biological target: HIV-1 Env of 191821.E6.1 (HIV-1)
# [5] = biological target: HIV-1 Env of TRO.11 (HIV-1)
# [6] = biological target: HIV-1 Env of ZM135.10a (HIV-1)
# [7] = biological target: HIV-1 Env of Q168.a2 (HIV-1)
# [8] = biological target: HIV-1 Env of DU422.01 (HIV-1)
# [9] = biological target: HIV-1 Env of CAAN.A2 (HIV-1)
# [10] = biological target: HIV-1 Env of Q259.d2.17 (HIV-1)
# [11] = biological target: HIV-1 Env of KER2008.12 (HIV-1)
# [12] = biological target: HIV-1 Env of CAP210.E8 (HIV-1)
# [13] = biological target: HIV-1 Env of RW020.2 (HIV-1)
# [14] = biological target: HIV-1 Env of CM244.ec1 (HIV-1)
# [15] = biological target: HIV-1 Env of TRJO.58 (HIV-1)
# [16] = biological target: HIV-1 Env of DU172.17 (HIV-1)
# [17] = biological target: HIV-1 Env of ZM109.4 (HIV-1)
# [18] = biological target: HIV-1 Env of ZM233.6 (HIV-1)
# [19] = biological target: HIV-1 Env of CAP256.PI (HIV-1)
# [20] = biological target: HIV-1 Env of 0260.v5.c36 (HIV-1)
# [21] = biological target: HIV-1 Env of WITO.33 (HIV-1)
# [22] = biological target: HIV-1 Env of 3016.V5.c36 (HIV-1)
# [23] = biological target: HIV-1 Env of MB201 (HIV-1)
# [24] = biological target: HIV-1 Env of CAP244.D3 (HIV-1)
# [25] = biological target: HIV-1 Env of 6405.v4.c34 (HIV-1)
# [26] = biological target: HIV-1 Env of C1080.c3 (HIV-1)
# [27] = biological target: HIV-1 Env of UG037.8 (HIV-1)
# [28] = biological target: HIV-1 Env of Q23.17 (HIV-1)
# [29] = biological target: HIV-1 Env of Q769.d22 (HIV-1)
# [30] = biological target: HIV-1 Env of PVO.04 (HIV-1)
# [31] = biological target: HIV-1 Env of AC10.29 (HIV-1)
# [32] = biological target: HIV-1 Env of 6535.3 (HIV-1)
# [33] = biological target: HIV-1 Env of Q842.d12 (HIV-1)
# [34] = biological target: HIV-1 Env of CAP45.G3 (HIV-1)
# [35] = biological target: HIV-1 Env of MB539.2B7 (HIV-1)
# [36] = biological target: HIV-1 Env of RHPA.7 (HIV-1)
# [37] = biological target: HIV-1 Env of QH0692.42 (HIV-1)
# [38] = biological target: HIV-1 Env of ZM197.7 (HIV-1)
# [39] = biological target: HIV-1 Env of CAP256.SU (HIV-1)
# [40] = biological target: HIV-1 Env of ZM214.15 (HIV-1)
# [41] = biological target: HIV-1 Env of SC422.8 (HIV-1)
# [42] = biological target: HIV-1 Env of THRO.18 (HIV-1)
# [43] = biological target: HIV-1 Env of TH976.17 (HIV-1)
# [44] = biological target: HIV-1 Env of 96ZM651.02 (HIV-1)
# [45] = biological target: HIV-1 Env of CNE3 (HIV-1)
# [46] = biological target: HIV-1 Env of Q461.e2 (HIV-1)
# [47] = biological target: HIV-1 Env of REJO.67 (HIV-1)
# [48] = biological target: HIV-1 Env of KER2018.11 (HIV-1)
# [49] = biological target: HIV-1 Env of DU156.12 (HIV-1)
substance,measurement,setting,value
CAP256-VRC26.17 (antibody),IC50,[1],1.23 µg/mL
same,IC50,[2],0.4 µg/mL
same,IC50,[3],0.005 µg/mL
same,IC50,[4],35.4 µg/mL
same,IC50,[5],> 50 µg/mL
same,IC50,[6],> 50 µg/mL
same,IC50,[7],> 50 µg/mL
same,IC50,[8],0.51 µg/mL
same,IC50,[9],> 50 µg/mL
same,IC50,[10],0.076 µg/mL
same,IC50,[11],> 50 µg/mL
same,IC50,[12],0.006 µg/mL
same,IC50,[13],> 50 µg/mL
same,IC50,[14],0.14 µg/mL
same,IC50,[15],> 50 µg/mL
same,IC50,[16],> 50 µg/mL
same,IC50,[17],> 50 µg/mL
same,IC50,[18],0.006 µg/mL
same,IC50,[19],> 50 µg/mL
same,IC50,[20],> 50 µg/mL
same,IC50,[21],> 50 µg/mL
same,IC50,[22],0.011 µg/mL
same,IC50,[23],> 50 µg/mL
same,IC50,[24],> 50 µg/mL
same,IC50,[25],> 50 µg/mL
same,IC50,[26],> 50 µg/mL
same,IC50,[27],> 50 µg/mL
same,IC50,[28],6.42 µg/mL
same,IC50,[29],> 50 µg/mL
same,IC50,[30],> 50 µg/mL
same,IC50,[31],> 50 µg/mL
same,IC50,[32],> 50 µg/mL
same,IC50,[33],> 50 µg/mL
same,IC50,[34],> 50 µg/mL
same,IC50,[35],> 50 µg/mL
same,IC50,[36],> 50 µg/mL
same,IC50,[37],> 50 µg/mL
same,IC50,[38],2.2 µg/mL
same,IC50,[39],0.003 µg/mL
same,IC50,[40],> 50 µg/mL
same,IC50,[41],> 50 µg/mL
same,IC50,[42],> 50 µg/mL
same,IC50,[43],> 50 µg/mL
same,IC50,[44],> 50 µg/mL
same,IC50,[45],> 50 µg/mL
same,IC50,[46],> 50 µg/mL
same,IC50,[47],> 50 µg/mL
same,IC50,[48],0.064 µg/mL
same,IC50,[49],18.7 µg/mL
CAP256-VRC26.18 (antibody),IC50,[1],> 50 µg/mL
same,IC50,[2],1.9 µg/mL
same,IC50,[3],0.01 µg/mL
same,IC50,[4],10.4 µg/mL
same,IC50,[5],> 50 µg/mL
same,IC50,[6],> 50 µg/mL
same,IC50,[7],> 50 µg/mL
same,IC50,[8],5.4 µg/mL
same,IC50,[9],> 50 µg/mL
same,IC50,[10],5.31 µg/mL
same,IC50,[11],> 50 µg/mL
same,IC50,[12],0.019 µg/mL
same,IC50,[13],> 50 µg/mL
same,IC50,[14],1.42 µg/mL
same,IC50,[15],> 50 µg/mL
same,IC50,[16],> 50 µg/mL
same,IC50,[17],> 50 µg/mL
same,IC50,[18],0.037 µg/mL
same,IC50,[19],> 50 µg/mL
same,IC50,[20],> 50 µg/mL
same,IC50,[21],> 50 µg/mL
same,IC50,[22],0.028 µg/mL
same,IC50,[23],> 50 µg/mL
same,IC50,[24],> 50 µg/mL
same,IC50,[25],> 50 µg/mL
same,IC50,[26],2.15 µg/mL
same,IC50,[27],> 50 µg/mL
same,IC50,[28],35 µg/mL
same,IC50,[29],> 50 µg/mL
same,IC50,[30],> 50 µg/mL
same,IC50,[31],> 50 µg/mL
same,IC50,[32],> 50 µg/mL
same,IC50,[33],> 50 µg/mL
same,IC50,[34],> 50 µg/mL
same,IC50,[35],> 50 µg/mL
same,IC50,[36],> 50 µg/mL
same,IC50,[37],> 50 µg/mL
same,IC50,[38],1.89 µg/mL
same,IC50,[39],0.008 µg/mL
same,IC50,[40],> 50 µg/mL
same,IC50,[41],> 50 µg/mL
same,IC50,[42],> 50 µg/mL
same,IC50,[43],> 50 µg/mL
same,IC50,[44],> 50 µg/mL
same,IC50,[45],> 50 µg/mL
same,IC50,[46],> 50 µg/mL
same,IC50,[47],> 50 µg/mL
same,IC50,[48],0.03 µg/mL
same,IC50,[49],> 50 µg/mL
CAP256-VRC26.19 (antibody),IC50,[1],0.076 µg/mL
same,IC50,[2],0.13 µg/mL
same,IC50,[3],0.02 µg/mL
same,IC50,[4],29.2 µg/mL
same,IC50,[5],> 50 µg/mL
same,IC50,[6],> 50 µg/mL
same,IC50,[7],7.04 µg/mL
same,IC50,[8],0.057 µg/mL
same,IC50,[9],> 50 µg/mL
same,IC50,[10],2.16 µg/mL
same,IC50,[11],> 50 µg/mL
same,IC50,[12],0.025 µg/mL
same,IC50,[13],> 50 µg/mL
same,IC50,[14],0.024 µg/mL
same,IC50,[15],> 50 µg/mL
same,IC50,[16],> 50 µg/mL
same,IC50,[17],2.82 µg/mL
same,IC50,[18],0.009 µg/mL
same,IC50,[19],> 50 µg/mL
same,IC50,[20],> 50 µg/mL
same,IC50,[21],> 50 µg/mL
same,IC50,[22],0.039 µg/mL
same,IC50,[23],> 50 µg/mL
same,IC50,[24],> 50 µg/mL
same,IC50,[25],> 50 µg/mL
same,IC50,[26],14.5 µg/mL
same,IC50,[27],> 50 µg/mL
same,IC50,[28],0.233 µg/mL
same,IC50,[29],> 50 µg/mL
same,IC50,[30],1.1 µg/mL
same,IC50,[31],2.98 µg/mL
same,IC50,[32],> 50 µg/mL
same,IC50,[33],0.16 µg/mL
same,IC50,[34],> 50 µg/mL
same,IC50,[35],0.431 µg/mL
same,IC50,[36],> 50 µg/mL
same,IC50,[37],> 50 µg/mL
same,IC50,[38],0.135 µg/mL
same,IC50,[39],0.015 µg/mL
same,IC50,[40],> 50 µg/mL
same,IC50,[41],> 50 µg/mL
same,IC50,[42],> 50 µg/mL
same,"IC50 (neutralization, TZM-bl)",[43],> 50 µg/mL
same,IC50,[44],> 50 µg/mL
same,"IC50 (neutralization, TZM-bl)",[45],> 50 µg/mL
same,IC50,[46],15.6 µg/mL
same,IC50,[47],> 50 µg/mL
same,IC50,[48],0.005 µg/mL
same,IC50,[49],1.34 µg/mL
